In the supplement of paper PMC10567573:
± gives the standard deviation.

Test: protein stability index of a GFP-peptide fusion (GPS, HEK-293T) (PSI 1-6); higher = more stable
[1] = treatment: DMSO, c terminus: a fixed tail appended
[2] = treatment: MLN4924 1 uM, 8 h, c terminus: a fixed tail appended
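Note: 24-mer peptide tiles fused after GFP, lentivirally expressed, FACS-sorted into six equal bins by GFP/DsRed ratio, decoded by Illumina sequencing, PSI is the read-weighted mean bin number.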

Sequence | protein stability index [1] | protein stability index [2] | protein stability index (treatment: DMSO, c terminus: native) | protein stability index (treatment: MLN4924 1 uM, 8 h, c terminus: native)
TNVVTGHRQSFGTNSDVLAQQFAL [DCAF4] | 3.35 ± 0.1 | 3.43 ± 0.33 |  | 
KARDWFQGHLRRLRSRYSVASFKF [MYORG] | 2.21 ± 0.33 | 2.15 ± 0.29 |  | 
GATAASETLSGHGPLAQPLTLQVL [ADAMTS4] | 3.28 ± 0.29 | 3.19 ± 0.36 |  | 
RGVHCWVCDESVRKLSSAVRSGIV [PRIM1] | 2.24 ± 0.22 | 2.19 ± 0.14 |  | 
DSKSGGSGSESDHTTRSSLRGPRE [DVL3] | 5.31 ± 0.27 | 5.19 ± 0.22 |  | 
LKPFFMKEVGSHFDDFVTNLIEKS [SOAT1] | 2.48 ± 0.32 | 2.88 ± 0.13 |  | 
ISHWHPNITINIVDDHTPWVKGSV [CLPTM1] | 2.37 ± 0.22 | 2.03 ± 0.34 |  | 
TIQVHRRYWRSLRVMKVEDREGPS [HDAC6] | 2.31 ± 0.21 | 3.14 ± 0.34 |  | 
IDGQGRPRTSQSEETRVWHRRDGK [CAMK2B] | 5.2 ± 0.2 | 5.24 ± 0.11 |  | 
LSALLQFGVTYLEDYSAEYIIQQG [BCL2L13] | 2.9 ± 0.42 | 2.43 ± 0.55 |  | 
PASQAASSSSASADLLAGFGGSFM [SNAP91] | 3.89 ± 0.24 | 3.73 ± 0.12 |  | 
QCKDALEIYKRFLTRMTRVSEFLK [SNAP91] | 2.77 ± 0.9 | 2.51 ± 0.24 |  | 
LESRQRSLEQANRSLQLRIQELEL [TFE3] | 3.97 ± 0.27 | 3.98 ± 0.4 |  | 
SAFADIIHSLKESGQLWLDAYLHQ [FADS1] | 2.16 ± 0.4 | 2.25 ± 0.49 |  | 
KNMDQVAPVANSYRGTLKRQPAFD [ETS2] | 3.99 ± 0.41 | 4.15 ± 0.21 |  | 
KLKPHEEPLRSEILSGKFTILNVR [PTPN9] | 3.01 ± 0.14 | 2.96 ± 0.11 |  | 
CVLVDTGRPIPGTSTRYEQPKCDN [SMOC2] | 3.79 ± 0.31 | 3.77 ± 0.22 |  | 
ALVRWWNGIGAVLDFTHPKARDWF [MYORG] | 2.59 ± 0.52 | 2.3 ± 0.51 |  | 
IQQELIKQEQSIISEYEKSLQFDE [RPAIN] | 4.64 ± 0.12 | 4.67 ± 0.079 |  | 
CTDCGKSFNHNAHLTVHKRIHTGE [ZNF8] | 4.54 ± 0.21 | 4.41 ± 0.21 |  | 
NSLAALDLSGIQTSDAAFLTQWKD [ZER1] | 4.25 ± 0.2 | 4.29 ± 0.23 |  | 
RDFHRKILTLPEMMRMFSENLAHH [TRIM15] | 2.25 ± 0.17 | 2.31 ± 0.051 |  | 
RQNDILQVVSQGWKYFKGNFYYFS [CD207] | 2.3 ± 0.73 | 2.06 ± 0.58 |  | 

Sequence | protein stability index [1] | protein stability index [2] | protein stability index (treatment: DMSO, c terminus: native) | protein stability index (treatment: MLN4924 1 uM, 8 h, c terminus: native)
YSHLAYNNYRLGGNPSTNSRVTAS [SMARCE1] | 3.3 ± 0.34 | 3.35 ± 0.18 |  | 
WNDAPCDKTFLFICKRPYVPSEP [CD207] |  |  | 1.99 ± 0.96 | 2.13 ± 0.13
SFTSSDKTIKSFFPHSGKDCLLCF [C8orf76] | 2.47 ± 0.51 | 1.9 ± 0.44 |  | 
KSPSSPQAAFTQQGMEGIKVFLHE [TBX5] | 3.58 ± 0.23 | 3.68 ± 0.26 |  | 
RAAQLQHSEKMAQYLEEERHMREE [CCDC6] | 5.15 ± 0.25 | 5 ± 0.46 |  | 
LMSAQTITSETTSTTTTTHITKTV [EPB41L3] | 4.5 ± 0.26 | 4.68 ± 0.14 |  | 
DIRYLLGYVSQQGGQRSTPLIIAA [FEM1B] | 2.5 ± 0.41 | 2.62 ± 0.21 |  | 
GSAGRLLAVGTDLYGQRNSAPEQE [GFOD1] | 4.61 ± 0.44 | 4.79 ± 0.21 |  | 
RPLARPIKRGDILPPEKGREVAKE [RHOBTB1] | 5.17 ± 0.088 | 4.97 ± 0.12 |  | 
LKVKCLNNLAASQLKLDHYRAALR [FKBP8] | 2.28 ± 0.31 | 2.19 ± 0.47 |  | 
SSAGGAKAGQPESRALALFDIQKI [ZNF8] | 3.99 ± 0.52 | 4.26 ± 0.26 |  | 
KPYNCLQCLDKTNESALVKEKELS [MTUS2] | 4.74 ± 0.14 | 4.59 ± 0.23 |  | 
LEKPPAPNQAMVVAAAGDACPPQH [TBC1D10A] | 5.21 ± 0.21 | 5.2 ± 0.33 |  | 
LIALANRFCLPHLVALAEQHAVQE [RHOBTB1] | 3.16 ± 0.47 | 3.33 ± 0.47 |  | 
AWETKKILAVSFAPLIQPCHSESG [PCMTD2] | 2.35 ± 0.2 | 2.54 ± 0.35 |  | 
YGSCYTVDGVWTAQRPGITHGVGL [SCNN1D] | 2.69 ± 0.5 | 2.2 ± 0.15 |  | 
LSFYDAERHCHLYTFHARFGEVRP [TRIM35] | 2.34 ± 0.54 | 2.3 ± 0.55 |  | 
KAALAALCPGDLIQAINGESTELM [PDLIM4] | 3.495 ± 0.025 | 3.77 ± 0.21 |  | 
IQDGTIHLYIYSIHSIPKGTEITI [KMT2E] | 2.48 ± 0.43 | 3.24 ± 0.15 |  | 
IFGDLCGNMANLSLHDHDGSSGAS [DVL3] | 3.9 ± 0.45 | 4.27 ± 0.17 |  | 
MPPATGGGLAESELRPRRGRCGPQ [POMT2] | 4.59 ± 0.17 | 4.61 ± 0.18 |  | 
VTSIPSVSDSLTWREFHYIQSKLG [STEAP1] | 2.66 ± 0.24 | 2.69 ± 0.18 |  | 
ASLENSLEETKGRYCMQLSQIQGL [KRT16] | 3.3 ± 0.39 | 3.17 ± 0.25 |  | 

Sequence | protein stability index [1] | protein stability index [2] | protein stability index (treatment: DMSO, c terminus: native) | protein stability index (treatment: MLN4924 1 uM, 8 h, c terminus: native)
DFLAEKESLTEDEATQFLKQILDG [DAPK3] | 4.4 ± 0.55 |  |  | 
LLTFQQITTVSKAKGASLFTCDLQ [VPS39] | 2.14 ± 0.2 | 2.07 ± 0.27 |  | 
LALYVLFLADEEFDVVVCDQVSAC [ALG2] | 2.92 ± 0.44 | 2.59 ± 0.59 |  | 
KIQLSDSEAKSHSSADDASAWSNI [FAN1] | 4.757 ± 0.032 | 4.74 ± 0.11 |  | 
LEPPTMRKKRLLDRKVLLKSDSPT [GOLPH3L] | 4.38 ± 0.21 | 4.54 ± 0.17 |  | 
QQYRQDQRDGSKSEDELDQASTPT [CCND2] | 5.45 ± 0.2 | 5.39 ± 0.12 |  | 
SSIPRRDDFFRHESGEHFRSLLGY [RAD54B] | 2.65 ± 0.21 | 2.57 ± 0.33 |  | 
DNIVNCNEFLCTLQKKLDNLQCLY [ZNF277] | 2.36 ± 0.39 | 2.07 ± 0.43 |  | 
PAPLCGGPSAEAYLLHPAAFHGAP [TBX6] | 2.82 ± 0.34 | 2.95 ± 0.27 |  | 
CISKNEWIQFNHPYTEKPRLWHTA [KLHDC2] | 2.43 ± 0.48 | 2.36 ± 0.3 |  | 
HQAQLISKIPHILKEMYDADLLEE [EIF5] | 2.94 ± 0.24 | 3.27 ± 0.59 |  | 
FLCGRALTSDLYAPMVAGALARLG [SLC25A39] | 2.85 ± 0.26 | 3.02 ± 0.64 |  | 
RGCSRVEGGGTSLHVACELARPEC [ANKRD9] | 3.62 ± 0.3 | 3.69 ± 0.18 |  | 
ELSGAPRCHTVPCAGSTALQEPGE [PXN] | 4.9 ± 0.28 | 5.05 ± 0.32 |  | 
VCEHLNLLEKDYFGLTYRDAENQK [EPB41L3] | 4.91 ± 0.31 | 4.69 ± 0.23 |  | 
DAALLEMENNHTVAITILQDDHDH [MTUS2] | 4.98 ± 0.21 | 4.92 ± 0.065 |  | 
SMPVRLLGHSPVLRNITNSQAPDG [CDC25B] | 3.23 ± 0.22 | 3.4 ± 0.24 |  | 
RKMEVEELSPLALGRFSLTPAEGD [CDC25B] | 4.66 ± 0.36 | 4.79 ± 0.13 |  | 
KVYPVQEALAVLEPYARLPPHKHV [TRIB3] | 3.02 ± 0.26 | 3.09 ± 0.15 |  | 
SCTPRMNRRMVGPDVIPLPHIYGA [FAM189A2] | 2.23 ± 0.22 | 2.27 ± 0.2 |  | 
ERIQELEDLLAKEKDNSRRMLTDK [LMNB1] | 4.85 ± 0.29 | 4.91 ± 0.34 |  | 
GSEVYRMLREPAEPVAAEPKQSGS [PDLIM4] | 5.12 ± 0.25 | 5.03 ± 0.22 |  | 
LEVERQENEQRRLFIQKEEQLQQI [MNAT1] | 4.6 ± 0.36 | 4.64 ± 0.17 |  | 

Sequence | protein stability index [1] | protein stability index [2] | protein stability index (treatment: DMSO, c terminus: native) | protein stability index (treatment: MLN4924 1 uM, 8 h, c terminus: native)
AEFQSLFSLLEELKEGMLMKIKQD [FSD1] | 2.21 ± 0.36 | 2.33 ± 0.2 |  | 
VEGEQQAWFGFAGTPGYLSPEVLR [CAMK2A] | 3.48 ± 0.21 | 3.49 ± 0.4 |  | 
GRGGRDRFTAESYTVLGDTLIDGG [FSD1] | 4.06 ± 0.26 | 4.08 ± 0.52 |  | 
PAGFRVSTLGTLQPPPAPPKKIMP [PPFIA4] | 4.14 ± 0.42 | 4.07 ± 0.43 |  | 
PPPNRMYPPPPPALPSSAPSGPPP [WASL] | 5.01 ± 0.3 | 5.08 ± 0.13 |  | 
GILNRPPAPTATVPAPQPPVTKPL [ZNF207] | 4.53 ± 0.19 | 4.57 ± 0.16 |  | 
DETLRSGELLNMIVAVIDSAQLQE [INTS3] | 2.84 ± 0.18 | 3.06 ± 0.39 |  | 
IACYVMKHYRFTHAEIIAWIRICR [CDC14A] | 2.37 ± 0.72 | 2.24 ± 0.53 |  | 
LPPSPPPSPASEQTVTVEEAAGGE [MAP2] | 5.4 ± 0.27 | 5.51 ± 0.16 |  | 
NKHLFYAEDFSTMDEISEKLKKGI [MATN2] | 3.79 ± 0.36 | 3.76 ± 0.39 |  | 
AEGALEEVPLEVLRQRESKWLDML [TBC1D10A] | 4.09 ± 0.88 | 3.91 ± 0.47 |  | 
HSLEYIDLMETTQYMNEGELRVLA [HDAC6] | 2.79 ± 0.4 | 3.04 ± 0.34 |  | 
TGEKPYQCNICGKCFSCNSNLHRH [ZNF263] | 4.03 ± 0.2 | 4.52 ± 0.26 |  | 
EVEEVENVQTEFPGEDENPEKASE [TRIM55] | 5.57 ± 0.39 | 5.47 ± 0.52 |  | 
RRDCMWSGFSARERLERAVSDRLA [MYCL] | 3.31 ± 0.23 | 3.4 ± 0.18 |  | 
KSVQGTGLAFIAFTEAMTHFPASP [SLC6A17] | 2.19 ± 0.49 | 2.22 ± 0.12 |  | 
YKKGRMMKDISNLEENDETRFILS [SLC6A17] | 3.35 ± 0.29 | 3.09 ± 0.39 |  | 
RPFWEEEKTFWKEEKSFWEMEKSF [CCDC70] | 2.71 ± 0.2 | 3.19 ± 0.26 |  | 
FVLAEDGRRCKKCTEGPIDLVFVI [MATN2] | 3.06 ± 0.44 | 2.5 ± 0.31 |  | 
RDQQVEAAQRALVEVLGPYEPLLS [RETREG3] | 3.9 ± 0.17 | 4.14 ± 0.17 |  | 
